± gives the standard deviation of the averaged measurements.
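Further: ATP exposure 15 min at 22 °C before imaging.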

The subject of the data set is ATP. Briefly: switch fluorescence ratio, 500 uM ATP over buffer (Cy3 cluster intensity, sum of 5 cycles each) (fold (ratio)); higher = stronger signal-on switching upon ATP binding; sequences stand for … in TCGTCGGCAGCGTCAGATGTGTATAAGAGACAGTTTTTTTTTTTTTTTTTTTTTTTTT…TC. The note with it: aptamer strand: ATP DNA aptamer (quencher-CACCTGGGGGAGTATTGCGGAGGAAGG + anchor), 100 nM annealed; ATP concentration: 500 uM. The gist of the method: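 Imaging in selection buffer was followed by imaging after 15 min with 500 uM ATP at 22 °C, for Cy3-labelled switching-strand clusters annealed to 100 nM quencher-labelled ATP aptamer on a modified Illumina MiSeq flow-cell. Five of these buffer/ATP cycles ran, separated by NaOH stripping and re-annealing. The fluorescence ratio per cluster is summed target-cycle over summed buffer-cycle Cy3 intensity, averaged per switch-domain sequence; clusters outside 100-1000 RFU were removed.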
Turning to GTTTTGGTCG, the switch fluorescence ratio came to 0.9894 ± 0.007. GGTTGTAAAA: the switch fluorescence ratio worked out at 0.9867 ± 0.0092. In the case of GGGCCCGATT, the switch fluorescence ratio turned out to be 0.976 ± 0.037.

For the sequence TCCCGGGGGA, the switch fluorescence ratio worked out at 2 ± 1.2. Regarding ATATCTTTCT, the switch fluorescence ratio was 1.006 ± 0.0023. Consider GAGGGGGTCG, for which the switch fluorescence ratio came to 1.02 ± 0.079.

As to GGCACTATAT, the switch fluorescence ratio was 1.04 ± 0.023. The value for ATTACTCGCG was 1.05 ± 0.012; that for AGGGTATTGG was 0.993 ± 0.028.

For the sequence CGGGTAAGGG, the switch fluorescence ratio came out at 1.01 ± 0.04. In the case of AGATCATGCG, the switch fluorescence ratio was found to be 1.02 ± 0.045. CGAGAGTGCG: the switch fluorescence ratio came out at 0.962 ± 0.023.

Consider AAAACTATTT, for which the switch fluorescence ratio came to 0.9865 ± 0.0064. ACCATTTTTT: the switch fluorescence ratio worked out at 0.9862 ± 0.006. Take TGGTCCACTG: the switch fluorescence ratio was 1.009 ± 0.0057. The result for ATGTGTCCT reads 1.016 ± 0.0039.

For the sequence TTGGCTACTG, the switch fluorescence ratio turned out to be 0.962 ± 0.065. The value for TTTTGGCATG was 1.03 ± 0.034; that for GGGAAGAGTT was 0.994 ± 0.012. With CGATCTGCTC, the switch fluorescence ratio turned out to be 1.06 ± 0.025. Consider CGAGTGTCGG, for which the switch fluorescence ratio was found to be 0.984 ± 0.02.

Take TGTCGGAGAT: the switch fluorescence ratio came to 0.987 ± 0.018. As to ACACGGGGAG, the switch fluorescence ratio was 1.01 ± 0.044. As to ATCGTGTATG, the switch fluorescence ratio turned out to be 0.968 ± 0.028. On to TTCATCATAG, for which the switch fluorescence ratio amounted to 1.05 ± 0.029. ATCTAGGTAC: the switch fluorescence ratio is 1.06 ± 0.058. With TGCATTATTA, the switch fluorescence ratio was 0.995 ± 0.049. The value for TTCGCGGTTA was 1 ± 0.03; that for CCATGGGTAG was 0.974 ± 0.056; that for TTTCTTGGGT was 1.04 ± 0.17. Regarding CGGGTACCAG, the switch fluorescence ratio was 1.01 ± 0.043. As to GATATAAACG, the switch fluorescence ratio came to 1.02 ± 0.03. As for TGGCGCCCTG, the switch fluorescence ratio was 0.998 ± 0.069.

As to AGTTCTGTTT, the switch fluorescence ratio was determined as 0.994 ± 0.047. With GGTGTTTTAG, the switch fluorescence ratio was determined as 0.989 ± 0.021. In the case of TCGTTTTCGT, the switch fluorescence ratio was found to be 0.9787 ± 0.009.

Take CCGGTACGTC: the switch fluorescence ratio was determined as 1.12 ± 0.044. Take TCCTATAAAA: the switch fluorescence ratio worked out at 0.987 ± 0.032.

TGGGGGTTCG: the switch fluorescence ratio is 0.99 ± 0.035. As to GAAAAGGGGA, the switch fluorescence ratio is 1.27 ± 0.48. For ATTTGAGTAT, the switch fluorescence ratio was determined as 1.004 ± 0.0093. The result for GGGCGGAGGG reads 0.998 ± 0.027.

TTTAGTTTGG: the switch fluorescence ratio came to 1 ± 0.031. ATAGTAGGCT: the switch fluorescence ratio came to 0.994 ± 0.011. The value for TCGGTCGGGA was 1.022 ± 0.0017; that for GGGTTGAAGA was 0.971 ± 0.04; that for TCAATGTGTC was 1.03 ± 0.12. In the case of CAGTGTTGGC, the switch fluorescence ratio is 1 ± 0.016. For the sequence AGGAAAGTTT, the switch fluorescence ratio was determined as 0.955 ± 0.028. In the case of GTGGGTCCTA, the switch fluorescence ratio stood at 0.9891 ± 0.0013. As to TGAATTTGTA, the switch fluorescence ratio stood at 0.993 ± 0.03.

Consider TTACTACCGG, for which the switch fluorescence ratio came out at 1.04 ± 0.012. Regarding CGGGGTGCGT, the switch fluorescence ratio came to 1.02 ± 0.037.

Consider TTGGTGTAGC, for which the switch fluorescence ratio was 0.972 ± 0.026.

On to GTTTGTTCGG, for which the switch fluorescence ratio turned out to be 0.995 ± 0.015.

On to TTGAGGTC, for which the switch fluorescence ratio worked out at 1 ± 0.029. On to AGGGTGGTGC, for which the switch fluorescence ratio amounted to 1.03 ± 0.018.

As for TAGTTCGACT, the switch fluorescence ratio was 1.004 ± 0.0091.

Turning to TGGGTACAGC, the switch fluorescence ratio was found to be 1.02 ± 0.04. Turning to TTTTCGTAGG, the switch fluorescence ratio was found to be 0.983 ± 0.011. For TAAGGAGGAG, the switch fluorescence ratio was 1 ± 0.013. Turning to CCATTTGTT, the switch fluorescence ratio was 1.04 ± 0.035.

As for TATCGAGTGG, the switch fluorescence ratio worked out at 0.979 ± 0.058.

Consider GTGAGCCGTT, for which the switch fluorescence ratio was determined as 1.04 ± 0.025. On to CGGCTACGGG, for which the switch fluorescence ratio amounted to 0.995 ± 0.046. For CTGCGAGGGG, the switch fluorescence ratio is 1 ± 0.016. For CCGGGTTTGT, the switch fluorescence ratio worked out at 1.05 ± 0.03.

Take GTGATTATGG: the switch fluorescence ratio stood at 0.981 ± 0.028. Turning to TGGCAGGGAT, the switch fluorescence ratio came to 1.02 ± 0.067. For the sequence AGGGACAGGG, the switch fluorescence ratio amounted to 1.02 ± 0.05.

On to CTTCGCTCGA, for which the switch fluorescence ratio is 1.35 ± 0.07. For the sequence TAGAAACGGG, the switch fluorescence ratio worked out at 1.02 ± 0.031.

Regarding AGTTTTACAA, the switch fluorescence ratio amounted to 1.03 ± 0.012. The result for AGGAAACTCG reads 1.03 ± 0.052. Turning to GCGCGCACAC, the switch fluorescence ratio turned out to be 1.05 ± 0.019.

On to GGGAAGCGTT, for which the switch fluorescence ratio was determined as 0.997 ± 0.012. In the case of CGGTAATTGG, the switch fluorescence ratio was 1.01 ± 0.02. CTAATGGAGG: the switch fluorescence ratio was found to be 1.01 ± 0.011. As for TTATCATAGG, the switch fluorescence ratio came out at 1.01 ± 0.012.

For the origin of these results see the supplement of paper PMC10126150.
